Measured values from publication PMC10686824, “Bacterial cGAS senses a viral RNA to initiate immunity”.

T1: His6-MBP-Ssc-CdnE03 (UniProt P0DXA6 1-324)
T1 sequence: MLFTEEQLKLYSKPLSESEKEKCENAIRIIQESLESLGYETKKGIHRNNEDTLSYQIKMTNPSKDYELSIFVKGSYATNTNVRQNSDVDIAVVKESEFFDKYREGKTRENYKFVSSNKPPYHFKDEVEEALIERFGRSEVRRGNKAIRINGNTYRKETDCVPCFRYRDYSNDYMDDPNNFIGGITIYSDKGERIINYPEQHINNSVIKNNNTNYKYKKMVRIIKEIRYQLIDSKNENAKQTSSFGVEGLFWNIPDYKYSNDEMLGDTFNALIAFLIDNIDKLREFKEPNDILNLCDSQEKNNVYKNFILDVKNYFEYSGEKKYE


Target: T1, His6-MBP-Ssc-CdnE03
Test: pull-down; total RNA of infected cells; EMSA: 50 mM CAPSO pH 9.4, 50 mM KCl, 5 mM Mg acetate, 1 mM DTT, 4 C 25 min, 1 uM RNA, 2% agarose in 1x TB; pull-down on cobalt resin, buffer not given in material
Conditions: protein: recombinant, tags: His6-MBP

Binder | binding result (hairpin (predicted)) | binding result
UUCCGGAAGAUGAUUAGUCAUGUAUGAAAUACUUGAUCUAAAAAAUAAA (structured_RNA) [cabRNA PhiJ4 (49 nt)] | binds | 
200-nt RNA from 80alpha-vir(cabRNA57) (structured_RNA) RNA: AGAGGAGAACCUCAAGAGGCUUACAGUAAGAAAUAUGACCAUUUAAACGAUGAAGUGGAAAAAGAGGUUACUUACACAAUCACACCAACUUUUGAAGAGCGUCAGAGAUCUAUUGACCACAUACUAAAAGUUCAUGGUGCGUAUAUCGACAAAAAAGAAAUUACUCAGAAGAAUAUUGAGAUUAAUAUUGGUGAGUACGA |  | binds
80-nt RNA from 80alpha-vir(cabRNA100) (structured_RNA) RNA: AUGGUGCGUAUAUCGACAAAAAAGAAAUUACUCAGAAGAAUAUUGAGAUUAAUAUUGGUGAGUACGAUGACGAAAGUUAA |  | binds
GAAUGUUAUGGCAAUGCUACUAAGUCAGCUGUGC (structured_RNA) [cabRNA PhiJ1/2 (34 nt)] | binds | 
